PMC3045587

T1: hTra2-β RRM (Homo sapiens, UniProt P62995 110-201)
T1 sequence: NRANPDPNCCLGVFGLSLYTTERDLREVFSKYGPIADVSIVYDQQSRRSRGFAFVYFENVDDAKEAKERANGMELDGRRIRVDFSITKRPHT


Assays:
[1] = biological target: T1, hTra2-β RRM; assay: ITC
[2] = biological target: T1, hTra2-β RRM; assay: ITC; remark: listed apart in the source
[3] = biological target: T1, hTra2-β RRM; assay: NMR titration

Binder	Kd [1] [µM]	Kd [2] [µM]	Kd [3] [µM]
GAAGAA (ssRNA) [(GAA)2, GAAGAA]	1.5	–	–
GACUUCAACAAGUC (structured_RNA) [14-mer CAA stem-loop RNA]	3.48	–	–
UCAAU (ssRNA)	–	47.8	~40
